Reference: US20060134122A1, “Peptides of syndecan-1 for inhibition of cancer” (priority 2004, published 2006)

How the values were obtained:
[1] = tested on: MDA-MB-435 human mammary carcinoma cells; assay: Cell spreading assay, MDA-MB-435; type: cell-based; settings: 2 h, GST-mS1ED 20 μM; for cell spreading on VN: 10 μg/mL VN, LM609 30 μg/mL
Procedure: FIGS. 2A-C—Sdc-1 adhesion-mediated cell spreading correlates with αvβ3 integrin. expression and activity. (FIG. 2A) FACS analysis of αvβ3 integrin expression (mAb LM609) in human mammary carcinoma cells against an IgG isotype control. (FIG. 2B) Depicted on split panels are phalloidin-stained MDA-MB-435 (upper half) and MCF-7 (lower half) cells 2 h after plating on wells coated with mAb B-B4 in plating medium alone or medium containing either 30 μg/mL mAb LM609, 1 μg/mL mAb 13 or 20 μM GST-mS1ED. Bar, 50 μm. (FIG. 2C) Untreated MDA-MB-435, MDA-MB-231 and MCF-7 cells (columns 1 and 4) and cells pretreated in suspension with 1 μg/mL mAb 13 (columns 2 and 3) were seeded on wells coated with either mAb B-B4 or COL I in plating medium alone (columns 1, 2 and 4) or medium containing 20 μM GST-mS1ED (column 3). Cells were incubated at 37° C. for 2 h, fixed, permeabilized and stained with WOW1 and an Alexa 488-conjugated secondary. Panel insets are corresponding phase contrast pictures. Bar, 20 μm.
FIG. 3—MDA-MB-435, but not MCF-7, human carcinoma cells display functional coupling of Sdc-1 and αvβ3 integrins on VN. Depicted are phalloidin-stained cells 2 h after plating on wells coated with 10 μg/mL VN (upper half) or FN (lower half) in plating medium alone or medium containing either 30 μg/mL mAb LM609, 25 μg/mL mAb 13, 20 μM GST-mS1ED or -mS4ED. Bar, 50 μm.
Sdc-1 adhesion-mediated cell spreading correlates with αvβ3 integrin expression and activity. To test whether the αvβ3 integrin's dependence on Sdc-1 extends to other carcinoma cells, the inventors screened a panel of human carcinoma cells with mAb LM609 using FACS analysis. […] To test the collaboration between Sdc-1 and αvβ3 integrin when cells are adherent via Sdc-1, MDA-MB-435 and MCF-7 cells were plated on wells coated with hS1-specific mAb B-B4. While αvβ3-positive MDA-MB-435 cells spread on this antibody substratum, their spreading is blocked (similar to results obtained in the MDA-MB-231; Beauvais and Rapraeger, 2003) by treatment with either mAb LM609 (added either before plating or 30 min after plating, when cells have already begun to spread) or GST-mS1ED protein (which is not recognized by mAb B-B4).
MDA-MB-435, but not MCF-7, human carcinoma cells display functional coupling of Sdc-1 and αvβ3 integrin on VN. To test whether activation of αvβ3 integrin activation on matrix is also functionally coupled to Sdc-1, MDA-MB-435 and MCF-7 cells were plated on either VN or FN (FIG. 3). MDA-MB-435 cells spread on VN and require αvβ3 integrins for this activity as spreading is blocked by mAb LM609. […]

B82L fibroblasts = assay: B82L cell attachment and spreading; type: cell-based, mouse; settings: for cell attachment and spreading on VN: 5 μg/mL VN, S1ED 1-30 μM, GST and GST-mS4ED 30 μM
Source text: FIGS. 11A-F—Downregulation of mouse Sdc-1 expression by siRNA blocks αvβ5-dependent cell attachment and spreading on VN. FACS analysis for (FIG. 11A) mouse syndecan-1 (mAb 281.2), (FIG. 11B) αv integrin subunit (mAb H9.2B8), (FIG. 11C) mouse Syndecan-4 (mAb KY8.2), (FIG. 11D) human syndecan-1 (mAb B-B4) and (FIG. 11E) FcR^ecto-hS1 chimera (FITC-conjugated hIgG) expression against isotype IgG controls (red-fill) in vector^NEO (FIGS. 11A-C), human syndecan-1 (FIG. 11D) and FcR^ecto-hS1 (FIG. 11E) expressing B82L cells 48 h after transfection with either 600 nM control (Control) or mouse syndecan-1-specific siRNA (siRNA). (FIG. 11F) B82L^NEO empty vector-transfected control cells and B82L cells expressing human syndecan-1 or the FcR^ecto-hS1 chimera were transfected with control or mouse syndecan-1-specific siRNA and seeded on wells coated with either 5 μg/mL VN alone or a mixed substratum of VN plus 60 μg/mL of antibody directed against mouse syndecan-1 (281.2), human syndecan-1 (B-B4) or the FcR^ecto-hS1 chimera (hIgG). Cells were incubated at 37° C. for 2 h, fixed, and stained with rhodamine-conjugated phalloidin.
FIGS. 12A-B—B82L cell spreading on VN is blocked by recombinant Scd-1ED. (FIG. 12A) B82L fibroblasts were plated on 5 μg/mL VN in the absence of other treatment, or in the presence of 30 μM GST, 1-30 μM GST-mS1ED or 30 μM GST-mS4ED (inset), then fixed and stained with rhodamine-phalloidin for visualization. (FIG. 12B) Quantification of cell adhesion in triplicate samples (±S.E.) plated either with no additions, or concentrations of GST-mS1ED ranging from 0-30 μM. […]
The failure of NEO cells to engage the mixed substratum is indicative of the efficient blockade of mouse Sdc-1 expression by the siRNA. It is unlikely that the mouse Sdc-1-siRNA treatment has any non-specific cellular effects since spreading on VN is specifically rescued by the expression of full-length human Sdc-1 (hS1, FIG. 11F). Spreading of the B82L-hS1 cells is indistinguishable from parental cells. However, spreading on VN is not recovered in cells expressing the FcR^ecto-hS1 chimera—a construct in which the syndecan's ectodomain is replaced by the ectodomain of the human Fcγ receptor Ia (FcR^ecto-hS1)—regardless of whether the cells are plated on VN alone, or VN supplemented with 60 μg/mL of hIgG to engage the FcR^ecto-hS1 construct.
Recombinant Sdc-1 ectodomain competitively blocks αvβ5 integin activity. To test whether soluble Sdc-1 ectodomain will compete with the syndecan activation of the αvβ5 integrin, B82L cells were plated on 5 μg/mL VN in the presence of a recombinant GST fusion protein containing either the ectodomain of mouse Sdc-1 (GST-mS1ED) or human Sdc-1 (GST-hS1ED; data not shown).

B1: GST-mS1ED: recombinant mouse syndecan-1 ectodomain expressed as a fusion protein with GST (protein)
chain: QIVAVNVPPEDQDGSGDDSDNFSGSGTGALPDTLSRQTPSTWKDVWLLTATPTAPEPTSSNTETAFTSVLPAGEKPEEGEPVLHVEAEPGFTARDKEKEVTTRPRETVQLPITQRASTVRVTTAQAAVTSHPHGGMQPGLHETSAPTAPGQPDHQPPRVEGGGTSVIKEVVEDGTANQLPAGEGSGEQDFTFETSGENTAVAAVEPGLRNQPPVDEGATGASQSLLDRKEVLG
modifications: left off: a dimerising Fc or GST
notes: recombinant mouse syndecan-1 ectodomain expressed as a fusion protein with GST
- cell spreading on FN ([1]; 10 μg/mL FN, mAb 13 25 μg/mL): retain their ability to spread
- cell spreading on VN [1]: fail to spread
- cell spreading on mAb B-B4 ([1]; LM609 30 μg/mL (before or 30 min after plating)): blocked
- cell attachment and spreading on VN (B82L fibroblasts): increasing blockade
- lowest concentration tested at which competition occurs (B82L fibroblasts; cells plated on 5 μg/mL VN): 1 µM

B2: GST-mS4ED: recombinant GST fusion of mouse syndecan-4 ectodomain, specificity control (protein)
chain: ESIRETEVIDPQDLLEGRYFSGALPDDEDAGGSDDFELSGSGDLDDTEEPRPFPEVIEPLVPLDNHIPENAQPGIRVPSEPKELEENEVIPKRAPSDVGDDMSNKVSMSSTAQGSNIFERTE
modifications: left off: a dimerising Fc or GST
notes: recombinant GST fusion of mouse syndecan-4 ectodomain, specificity control
- cell spreading on VN [1]: no effect
- cell attachment and spreading on VN (B82L fibroblasts): without effect
